Sequences and labels used below:
T1: non-labelled peptide amphiphile (palmitic acid tail, six alanines, three glutamic acids)
T1 construct: designed peptide amphiphile, not a stretch of a natural protein; also called non-labelled PA; unlabelled PA; source: synthetic peptide (Fmoc solid-phase synthesis, purified by reversed-phase HPLC)
T1 peptide: Palmitoyl-AAAAAAEEE-NH2

B1: peptide amphiphile labelled with the sulfonated cyanine dye Cy5 (peptide)
peptide: Palmitoyl-AAAAAAEEEK(Cy5)-NH2
notes: designed peptide amphiphile; Made on MBHA rink amide resin, so the C-terminus is probably an amide (surmised); also called Cy5-PA; PA-Cy5; source: synthetic peptide (Fmoc solid-phase synthesis, purified by reversed-phase HPLC)
B2: peptide amphiphile labelled with the sulfonated cyanine dye Cy3 (peptide)
peptide: Palmitoyl-AAAAAAEEEK(Cy3)-NH2
notes: designed peptide amphiphile; Made on MBHA rink amide resin, so the C-terminus is probably an amide (surmised); also called Cy3-PA; PA-Cy3; source: synthetic peptide (Fmoc solid-phase synthesis, purified by reversed-phase HPLC)

The target of test [1] is T1, non-labelled peptide amphiphile …. The test is described as follows: FRET or BRET; nanofibres co-assembled from non-labelled PA with Cy3-PA (1 mol%) and Cy5-PA (0, 0.1, 0.2 and 0.5 mol%); 10 mM HEPES pH 7.5, NaCl 150 mM, final PA concentration 0.5 mM; emission spectra at the Cy3 excitation wavelength 520 nm. The note with it: both partners purified. In general terms: BRET reads energy transfer from a luciferase to a nearby fluorophore.

In test [2] the target is B2. The description is as above. The note with it: both partners purified.

The star is where a group is joined. Cy3 = disulfo-cyanine carboxylic acid dye; Cy5 = disulfo-cyanine carboxylic acid dye; Palmitoyl = CCCCCCCCCCCCCCCC(=O)*

B1: the binding result in test [1] and in test [2] was “binds” in each case.

For the molecule B2, the binding result in test [1] is given as “binds”.

The values are drawn from article PMC4874009, “Super-resolution microscopy reveals structural diversity in molecular exchange among peptide amphiphile nanofibres” (Nature Communications, 2016).
